Reference: doi:10.64898/2026.08.16.745104, “C. elegans Dicer stacks with the RIG-I-like receptor DRH-1 to cleave dsRNA”

Molecular target: DCR-1;DRH-1;RDE-4 (Caenorhabditis elegans;Caenorhabditis …, UniProt P34529;G5EDI8;G5EBF5 1-1910;1-1037;1-385, ||)
Assay: cryo-EM structure, 3.0 A; 5 mM ATP, 20 C; ADP modelled in DCR-1, DRH-1 and DRH-1*; Mg2+; cleavage-competent state, poised for second cleavage; RDE-4 dsRBM2 density not seen; Cryo-EM; sample buffer not given in material. Lysis/resuspension buffer 25 mM HEPES pH 7.5, 10 mM KOAc, 2 mM Mg(OAc)2, 100 mM KCl, 1 mM TCEP, 5% glycerol; RNA annealed in 50 mM Tris pH 8.0, 20 mM KCl; ATP sample incubated at 20 C
Conditions: protein: recombinant;recombinant;recombinant; (StrepTrap purification); copies: 1;1;1; 2 nt 3' overhangs at both termini

Sequence of DCR-1;DRH-1;RDE-4 (P34529 whole entry, chain 1 of 3): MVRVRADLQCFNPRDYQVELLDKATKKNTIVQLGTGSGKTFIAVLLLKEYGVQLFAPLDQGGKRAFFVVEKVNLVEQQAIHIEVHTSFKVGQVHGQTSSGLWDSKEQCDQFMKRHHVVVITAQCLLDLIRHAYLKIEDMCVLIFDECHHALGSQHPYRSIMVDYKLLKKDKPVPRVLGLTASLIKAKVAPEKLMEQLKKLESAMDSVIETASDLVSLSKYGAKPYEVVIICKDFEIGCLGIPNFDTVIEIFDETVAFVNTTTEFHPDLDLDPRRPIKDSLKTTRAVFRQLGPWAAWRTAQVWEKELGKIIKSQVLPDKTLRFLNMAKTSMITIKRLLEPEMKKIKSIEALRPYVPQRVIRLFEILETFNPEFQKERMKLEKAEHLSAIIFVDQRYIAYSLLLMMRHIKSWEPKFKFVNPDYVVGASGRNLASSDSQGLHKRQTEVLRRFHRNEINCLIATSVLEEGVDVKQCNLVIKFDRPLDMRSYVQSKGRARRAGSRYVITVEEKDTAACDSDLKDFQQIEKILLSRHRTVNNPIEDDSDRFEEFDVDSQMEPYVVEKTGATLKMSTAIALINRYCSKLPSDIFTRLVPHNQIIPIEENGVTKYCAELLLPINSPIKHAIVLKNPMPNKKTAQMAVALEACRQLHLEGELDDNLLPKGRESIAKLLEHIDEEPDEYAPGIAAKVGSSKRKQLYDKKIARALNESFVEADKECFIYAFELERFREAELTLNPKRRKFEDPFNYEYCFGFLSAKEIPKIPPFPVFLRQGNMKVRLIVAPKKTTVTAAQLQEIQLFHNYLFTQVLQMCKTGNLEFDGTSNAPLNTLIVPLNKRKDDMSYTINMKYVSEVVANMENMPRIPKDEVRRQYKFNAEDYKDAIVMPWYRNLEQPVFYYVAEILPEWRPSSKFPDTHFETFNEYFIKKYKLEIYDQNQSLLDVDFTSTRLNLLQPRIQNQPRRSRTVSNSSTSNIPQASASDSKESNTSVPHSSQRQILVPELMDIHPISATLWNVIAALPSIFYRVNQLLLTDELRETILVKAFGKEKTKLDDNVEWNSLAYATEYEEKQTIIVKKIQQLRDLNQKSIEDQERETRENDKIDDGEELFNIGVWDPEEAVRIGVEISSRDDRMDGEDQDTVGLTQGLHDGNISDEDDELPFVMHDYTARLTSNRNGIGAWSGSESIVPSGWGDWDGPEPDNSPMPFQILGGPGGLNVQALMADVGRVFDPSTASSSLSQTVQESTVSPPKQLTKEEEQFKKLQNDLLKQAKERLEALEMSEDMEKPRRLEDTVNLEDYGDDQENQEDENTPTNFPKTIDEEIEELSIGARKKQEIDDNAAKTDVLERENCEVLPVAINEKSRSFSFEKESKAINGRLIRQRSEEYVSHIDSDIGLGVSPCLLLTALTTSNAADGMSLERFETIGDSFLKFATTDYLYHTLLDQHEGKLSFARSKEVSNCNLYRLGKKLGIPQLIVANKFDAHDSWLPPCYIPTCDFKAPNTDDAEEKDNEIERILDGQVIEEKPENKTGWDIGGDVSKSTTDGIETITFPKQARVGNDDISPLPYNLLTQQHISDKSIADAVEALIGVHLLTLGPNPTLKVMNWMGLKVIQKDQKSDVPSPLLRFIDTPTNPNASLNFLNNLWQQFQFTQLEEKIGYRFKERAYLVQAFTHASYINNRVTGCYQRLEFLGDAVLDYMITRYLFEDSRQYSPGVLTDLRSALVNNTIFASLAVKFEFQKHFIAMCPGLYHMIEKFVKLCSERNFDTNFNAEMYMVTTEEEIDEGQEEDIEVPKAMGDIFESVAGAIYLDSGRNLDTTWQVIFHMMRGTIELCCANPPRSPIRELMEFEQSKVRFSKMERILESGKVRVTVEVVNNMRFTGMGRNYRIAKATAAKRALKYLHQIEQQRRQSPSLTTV
Sequence of DCR-1;DRH-1;RDE-4 (chain, as listed by the source ||, chain 2 of 3): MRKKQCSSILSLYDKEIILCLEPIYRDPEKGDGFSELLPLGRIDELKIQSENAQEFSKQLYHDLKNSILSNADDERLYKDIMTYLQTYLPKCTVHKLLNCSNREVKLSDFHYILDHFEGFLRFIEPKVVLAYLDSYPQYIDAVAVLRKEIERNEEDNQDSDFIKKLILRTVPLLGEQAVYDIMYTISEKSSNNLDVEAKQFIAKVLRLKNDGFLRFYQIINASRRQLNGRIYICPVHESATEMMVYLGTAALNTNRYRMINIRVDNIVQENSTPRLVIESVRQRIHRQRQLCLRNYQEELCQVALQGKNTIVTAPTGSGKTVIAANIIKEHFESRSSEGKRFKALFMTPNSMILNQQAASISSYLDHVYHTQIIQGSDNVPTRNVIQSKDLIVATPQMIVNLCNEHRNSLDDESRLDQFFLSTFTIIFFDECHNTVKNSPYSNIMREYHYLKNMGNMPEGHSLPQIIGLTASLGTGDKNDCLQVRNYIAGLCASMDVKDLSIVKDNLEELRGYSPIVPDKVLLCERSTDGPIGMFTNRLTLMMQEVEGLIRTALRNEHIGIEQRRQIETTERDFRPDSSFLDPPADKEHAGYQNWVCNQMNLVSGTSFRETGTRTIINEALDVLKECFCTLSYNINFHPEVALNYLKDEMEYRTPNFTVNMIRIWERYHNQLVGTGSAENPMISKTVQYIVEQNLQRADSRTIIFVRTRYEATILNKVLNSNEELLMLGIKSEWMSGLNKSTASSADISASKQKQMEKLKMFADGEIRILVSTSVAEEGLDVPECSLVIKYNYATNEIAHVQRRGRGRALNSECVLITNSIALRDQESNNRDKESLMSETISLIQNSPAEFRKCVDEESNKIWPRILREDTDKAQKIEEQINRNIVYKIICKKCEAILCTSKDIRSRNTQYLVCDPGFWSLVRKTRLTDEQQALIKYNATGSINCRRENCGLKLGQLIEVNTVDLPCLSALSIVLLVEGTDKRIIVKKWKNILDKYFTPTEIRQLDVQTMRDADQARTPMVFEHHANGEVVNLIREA
Sequence of DCR-1;DRH-1;RDE-4 (chain, as listed by the source ||, chain 3 of 3): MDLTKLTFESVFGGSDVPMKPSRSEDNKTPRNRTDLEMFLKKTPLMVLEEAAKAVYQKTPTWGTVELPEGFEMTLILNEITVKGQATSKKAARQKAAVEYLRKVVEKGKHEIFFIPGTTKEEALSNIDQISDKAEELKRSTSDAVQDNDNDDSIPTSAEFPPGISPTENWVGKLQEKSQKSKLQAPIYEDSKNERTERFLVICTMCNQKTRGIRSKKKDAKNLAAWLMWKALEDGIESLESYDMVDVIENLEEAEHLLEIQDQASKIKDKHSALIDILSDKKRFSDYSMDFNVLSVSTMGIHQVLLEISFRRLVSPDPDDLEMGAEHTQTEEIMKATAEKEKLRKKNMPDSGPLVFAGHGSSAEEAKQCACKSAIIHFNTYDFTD

B1: 3'ovr 106-dsRNA (dsRNA)
RNA 1: GGCAAUGAAAGACGGUGAGCUGGUGAUAUGGGAUAGUGUUCACCCUUGUUACACCGUUUUCCAUGAGCAAACUGAAACGUUUUCAUCGCUCUGGAGUGAAUACCAA
RNA 2: GGUAUUCACUCCAGAGCGAUGAAAACGUUUCAGUUUGCUCAUGGAAAACGGUGUAACAAGGGUGAACACUAUCCCAUAUCACCAGCUCACCGUCUUUCAUUGCCAA
B1: binds.
